Reference: patent US20220033508A1 (ADC THERAPEUTICS, published 2022)

T1: IL13RA2 on NCI-H1299 cells (human, UniProt Q14627)
T1 construct: cell-surface protein on NCI-H1299 cells; Cell-borne form of the target; It is kept apart from m1, which is the recombinant His-tagged extracellular domain; The sheet's title names the antibodies 'anti-IL13RA2 IgG' and the cells 'NCI-H1299 cells'; also called IL13Rα2; Interleukin-13 receptor subunit alpha-2
T1 sequence (receptor chain, looked up): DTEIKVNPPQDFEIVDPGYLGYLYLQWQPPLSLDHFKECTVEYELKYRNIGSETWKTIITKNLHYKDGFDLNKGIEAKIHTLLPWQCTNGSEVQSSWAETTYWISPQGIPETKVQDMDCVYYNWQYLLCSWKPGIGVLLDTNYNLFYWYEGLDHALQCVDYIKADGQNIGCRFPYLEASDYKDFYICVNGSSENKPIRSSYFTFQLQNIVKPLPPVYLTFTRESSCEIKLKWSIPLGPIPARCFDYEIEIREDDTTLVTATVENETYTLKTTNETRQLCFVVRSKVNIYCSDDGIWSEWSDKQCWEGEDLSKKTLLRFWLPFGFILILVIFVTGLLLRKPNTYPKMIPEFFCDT

T2: Recombinant human extracellular domain of IL13RA2-6His (27-343) (human, UniProt Q14627 27-343)
T2 construct: also called Human IL13RA2-6His; human IL13Rα2
T2 sequence: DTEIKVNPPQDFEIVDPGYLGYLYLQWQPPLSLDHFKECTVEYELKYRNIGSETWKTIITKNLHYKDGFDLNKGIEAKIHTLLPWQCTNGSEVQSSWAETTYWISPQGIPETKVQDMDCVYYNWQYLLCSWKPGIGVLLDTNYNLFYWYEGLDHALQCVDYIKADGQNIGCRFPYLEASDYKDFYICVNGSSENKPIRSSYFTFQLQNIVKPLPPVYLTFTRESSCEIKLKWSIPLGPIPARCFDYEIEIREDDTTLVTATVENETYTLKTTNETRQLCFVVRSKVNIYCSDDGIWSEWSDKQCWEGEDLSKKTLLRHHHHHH


How the values were obtained:
[1] = molecular target: T1, IL13RA2 on NCI-H1299 cells; assay: flow cytometry on NCI-H1299 cells, Alexa Fluor 488 anti-human IgG detection
Procedure: NCI-H1299 cells were diluted to 2×10⁶ cells/mL in assay buffer (0.1% BSA/0.1% Sodium Azide in PBS) and 50 μL added per well to a 96-well-plate. The HuCL47 and Clone 47 antibodies were diluted to a top concentration of 40 μg/ml (266 nM) of and diluted 1:4 for 7 dilutions as well as buffer only. 50 μL of the antibody were added to 50 μL of cells to give a concentration of 20 μg/ml. The plate was incubated for 1 hour at room temperature, after which the plate was centrifuged and washed three times. A Goat F(ab′)2 Anti-Human IgG Alexa Fluor 488-conjugated antibody was used (Life Technologies Cat. No. H10120) at a 1 in 250 dilution for detection in assay buffer, 50 μL added to cells and after one hour of incubation at room temperature the cells centrifuged and washed as before, fixed with 7.5% formaldehyde and analysed on the Flow cytometer, with data analysis carried out using FlowJo.
Chimeric clone 47 and HuCL47 were compared in terms of their: binding to NCI-H1299 Cells by standard FACS analysis using NCI-H1299 cells and unmodified purified antibodies. In vitro cytotoxicity analysis was performed on both A375 and NCI-1299 cells, using a pyrollobenzodiazepine dimer (PBD) warhead conjugated to chimeric clone 47 and HuCL47.

[2] = molecular target: T2, Recombinant human extracellular domain …; assay: ELISA on coated IL13RA2-6His; antibody kept 8 days, column headed 'EC50 45° C.'
Procedure: (§1) Recombinant human extracellular domain of IL13RA2-6His (27-343) was obtained from Sino biological (Ref 10350-H08H). 50 μl of 1 μg/ml of human IL13RA2 in PBS was coated overnight at 4° C. on MaxiSorp ELISA plates. The following morning, the plate is washed with PBS/Tween20 0.02%. Each well has 200 μl of Superblock blocking buffer added and incubated at room temperature for 1 hour in an orbital shaker at 120 rpm. A dilution series of each antibody was prepared, with dilutions of each antibody variant in PBS/Tween20 0.02%. The antibodies are added to blocked antigen coated plates and incubated for 1 hour at room temperature with 120 rpm shaking on an orbital shaker. Plates are then washed 3-times with 200 μl of PBS/Tween20 0.02% and 75 μl of secondary antibody (Mouse anti-human-HRP diluted 1 in 4000 in PBS/Tween20 0.02%) is added to the wells and incubated for 1 hour at room temperature with 120 rpm shaking on an orbital shaker. Plates are then washed 3-times with 200 μl of PBS/Tween20 0.02%. To develop the ELISA, 75 μl of TMB-Turbo substrate is added to the wells and incubated at room temperature with 120 rpm shaking on an orbital shaker till a blue colour develops, the reaction is then stopped with the addition of 75 μl of 0.6 N HCl. Plates are read on the Envision at […] and curves are analysed using GraphPad prism software
(§2) Binding of the variants listed in Table 3 to IL13Rα2 was also assessed by ELISA following incubation at 4° C. or 45° C. for 8 days. […] These binding data also indicate that the humanised variants VHAback/VKA and VHA3/VKA2 have improved stability properties as compared to the chimeric Clone 47.

[3] = molecular target: T2, Recombinant human extracellular domain …; assay: Biacore (SPR), IL13RA2-6His on the sensor, bivalent antibody in solution
Description: (§3) Biacore analysis using Human IL13RA2-6His coated sensor was used to calculate apparent affinity constants of the Clone 47 variants. A dilution series of the antibody variants were applied to the IL13RA2 sensor surface for 600 seconds […] to calculate the association constant Ka and buffer (HBS-EP+) was then applied for 1800 seconds to calculate the dissociation constant Kd. The ratio of the two constants will provide an apparent KD as the bivalency of the antibody will affect the binding kinetics.
(§4) Binding affinity of a chimeric (Ch) Clone 47 and select humanised variants to human IL13Rα2 was measured on Biacore.

[4] = molecular target: T2, Recombinant human extracellular domain …; assay: ELISA on plate-coated human IL13RA2-6His, anti-human-HRP detection
Procedure: as §1

[5] = molecular target: T2, Recombinant human extracellular domain …; assay: Biacore (SPR), apparent KD, IL13RA2-6His on the sensor, bivalent antibody in solution
Description: as §3, §4

[6] = molecular target: T2, Recombinant human extracellular domain …; assay: ELISA on coated IL13RA2-6His; antibody kept 8 days, column headed 'EC50 4° C.'
Procedure: as §1, §2

EC50 (read off the curve) [1] | EC50 [2] | koff [3] | kon [3] | EC50 (read off the curve) [4] | Kd [5] | EC50 [6] | Binder
~0.04 µg/mL | 0.0168 µg/mL | 6.58e-05 s⁻¹ | 125000 M⁻¹ s⁻¹ | ~0.04 nM | 0.53 nM | 0.0777 µg/mL | chimeric (Ch) Clone 47 (antibody, V domains shown, Chimeric antibody with the murine Clone 47 variable domains; also called chimeric Clone 47) VH: QVQLQQPGAELVRPGASVKLSCKASGYTFSNYLMNWVKQRPEQDLDWIGRIDPYDGDIDYNQNFKDKAILTVDKSSSTAYMQLSSLTSEDSAVYYCARGYGTAYGVDYWGQGTSVTVSS VL: not shown
~0.04 µg/mL | 0.0184 µg/mL | 1.12e-05 s⁻¹ | 112000 M⁻¹ s⁻¹ | ~0.05 nM | 0.1 nM | 0.0178 µg/mL | Clone 47 VHA / Clone 47 VKA (HuCL47) (antibody, V domains shown, Expressed as IgG in Expi293 cells; also called VHA/VKA; VHANKA) VH: QVQLVQSGAEVKKPGASVKVSCKASGYTFSNYLMNWVRQAPGQGLEWMGRIDPYDGDIDYNQNFKDRVTITRDTSASTAYMELSSLRSEDTAVYYCARGYGTAYGVDYWGQGTSVTVSS VL: EIVLTQSPATLSLSPGERATLSCRASESVDNYGISFMNWYQQKPGQAPRLLIYAASRQGSGIPDRFSGSGSGTDFTLTISRLEPEDFAVYYCQQSKEVPWTFGGGTKLEIK
– | 0.0128 µg/mL | – | – | – | – | 1.01 µg/mL | Clone 47 VHAback / Clone 47 VKA1 (antibody, V domains shown, Expressed as IgG in Expi293 cells; also called VHAback/VKA1) VH: QVQLVQSGAEVKKPGASVKVSCKASGYTFSNYLMNWVRQAPGQGLEWIGRIDPYDGDIDYNQNFKDRATLTVDKSASTAYMELSSLRSEDTAVYYCARGYGTAYGVDYWGQGTSVTVSS VL: EIVLTQSPATLSLSPGERATLSCRASESVDNYGISFMNWFQQKPGQAPRLLIYAASRQGSGIPDRFSGSGSGTDFTLTISRLEPEDFAVYYCQQSKEVPWTFGGGTKLEIK
– | 0.0123 µg/mL | 2.65e-05 s⁻¹ | 124000 M⁻¹ s⁻¹ | – | 0.21 nM | 0.0581 µg/mL | Clone 47 VHA / Clone 47 VKA1 (antibody, V domains shown, Expressed as IgG in Expi293 cells; also called VHA/VKA1) VH: QVQLVQSGAEVKKPGASVKVSCKASGYTFSNYLMNWVRQAPGQGLEWMGRIDPYDGDIDYNQNFKDRVTITRDTSASTAYMELSSLRSEDTAVYYCARGYGTAYGVDYWGQGTSVTVSS VL: EIVLTQSPATLSLSPGERATLSCRASESVDNYGISFMNWFQQKPGQAPRLLIYAASRQGSGIPDRFSGSGSGTDFTLTISRLEPEDFAVYYCQQSKEVPWTFGGGTKLEIK
– | 0.0123 µg/mL | – | – | – | – | 0.0258 µg/mL | Clone 47 VHA3 / Clone 47 VKA2 (antibody, V domains shown, Expressed as IgG in Expi293 cells; also called VHA3/VKA2) VH: QVQLVQSGAEVKKPGASVKVSCKASGYTFSNYLMNWVRQAPGQGLEWMGRIDPYDGDIDYNQNFKDRVTITRDKSASTAYMELSSLRSEDTAVYYCARGYGTAYGVDYWGQGTSVTVSS VL: EIVLTQSPATLSLSPGERATLSCRASESVDNYGISFMNWYQQKPGQAPRLLIYAASRQGSGIPDRFSGSGSGTDFTLTISRLEPEDFAVYFCQQSKEVPWTFGGGTKLEIK
– | 0.0164 µg/mL | 5.3e-06 s⁻¹ | 115000 M⁻¹ s⁻¹ | – | 0.05 nM | 0.0456 µg/mL | Clone 47 VHAback / Clone 47 VKA (antibody, V domains shown, Expressed as IgG in Expi293 cells; also called VHAback/VKA) VH: QVQLVQSGAEVKKPGASVKVSCKASGYTFSNYLMNWVRQAPGQGLEWIGRIDPYDGDIDYNQNFKDRATLTVDKSASTAYMELSSLRSEDTAVYYCARGYGTAYGVDYWGQGTSVTVSS VL: EIVLTQSPATLSLSPGERATLSCRASESVDNYGISFMNWYQQKPGQAPRLLIYAASRQGSGIPDRFSGSGSGTDFTLTISRLEPEDFAVYYCQQSKEVPWTFGGGTKLEIK
– | 0.0204 µg/mL | 8.2e-06 s⁻¹ | 131000 M⁻¹ s⁻¹ | – | 0.06 nM | 0.148 µg/mL | Clone 47 VHA / Clone 47 VKA2 (antibody, V domains shown, Expressed as IgG in Expi293 cells; also called VHA/VKA2) VH: QVQLVQSGAEVKKPGASVKVSCKASGYTFSNYLMNWVRQAPGQGLEWMGRIDPYDGDIDYNQNFKDRVTITRDTSASTAYMELSSLRSEDTAVYYCARGYGTAYGVDYWGQGTSVTVSS VL: EIVLTQSPATLSLSPGERATLSCRASESVDNYGISFMNWYQQKPGQAPRLLIYAASRQGSGIPDRFSGSGSGTDFTLTISRLEPEDFAVYFCQQSKEVPWTFGGGTKLEIK
